Values of other authors, collected in PMC8780439.

Columns and labels:
[1] = target: Synaptotagmin I (Homo sapiens) (UniProt P21579)
[2] = target: Synaptotagmin II (Homo sapiens) (UniProt Q8N9I0)
[3] = target: Synaptotagmin II (Mus musculus) (UniProt P46097)
Chain of UniProt P46097 (P46097 whole entry): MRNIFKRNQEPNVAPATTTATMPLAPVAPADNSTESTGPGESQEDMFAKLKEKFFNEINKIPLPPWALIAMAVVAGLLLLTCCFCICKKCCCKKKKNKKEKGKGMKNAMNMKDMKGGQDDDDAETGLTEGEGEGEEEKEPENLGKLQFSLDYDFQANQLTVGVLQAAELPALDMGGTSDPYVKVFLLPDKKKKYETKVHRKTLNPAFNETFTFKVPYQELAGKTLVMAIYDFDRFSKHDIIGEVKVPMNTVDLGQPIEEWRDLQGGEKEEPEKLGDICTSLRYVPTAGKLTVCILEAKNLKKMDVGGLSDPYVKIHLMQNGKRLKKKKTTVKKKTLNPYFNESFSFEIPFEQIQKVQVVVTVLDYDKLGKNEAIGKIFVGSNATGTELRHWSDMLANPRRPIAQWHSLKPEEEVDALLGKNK

Chain of UniProt Q8N9I0 (Q8N9I0 whole entry): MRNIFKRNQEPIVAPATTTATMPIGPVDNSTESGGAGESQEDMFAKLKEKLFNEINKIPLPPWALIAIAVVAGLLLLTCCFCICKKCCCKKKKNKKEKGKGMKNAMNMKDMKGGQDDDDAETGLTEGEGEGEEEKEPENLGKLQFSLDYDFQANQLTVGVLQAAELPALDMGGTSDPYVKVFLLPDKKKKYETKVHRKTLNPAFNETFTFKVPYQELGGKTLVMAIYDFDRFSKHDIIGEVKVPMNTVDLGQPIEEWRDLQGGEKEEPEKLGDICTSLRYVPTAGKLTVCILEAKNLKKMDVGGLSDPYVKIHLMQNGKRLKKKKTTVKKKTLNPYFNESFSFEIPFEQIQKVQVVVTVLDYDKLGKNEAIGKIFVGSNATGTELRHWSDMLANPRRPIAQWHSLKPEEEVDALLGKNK
Chain of UniProt P21579 (P21579 whole entry): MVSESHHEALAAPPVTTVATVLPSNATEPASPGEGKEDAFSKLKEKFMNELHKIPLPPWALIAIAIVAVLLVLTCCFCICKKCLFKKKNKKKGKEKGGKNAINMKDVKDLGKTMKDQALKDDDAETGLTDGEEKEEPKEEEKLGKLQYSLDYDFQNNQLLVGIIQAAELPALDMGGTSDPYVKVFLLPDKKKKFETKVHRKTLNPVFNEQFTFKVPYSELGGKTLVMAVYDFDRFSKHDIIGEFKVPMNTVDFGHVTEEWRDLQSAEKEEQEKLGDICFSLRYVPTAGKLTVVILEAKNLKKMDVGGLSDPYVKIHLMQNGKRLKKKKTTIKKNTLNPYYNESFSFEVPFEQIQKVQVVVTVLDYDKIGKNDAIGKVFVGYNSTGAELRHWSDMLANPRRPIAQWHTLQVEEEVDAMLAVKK

Substance	Kd [1] [µM]	Kd [2] [µM]	Kd [3] [µM]
BoNT/B (from UniProt P10844)	> 20	–	–
BoNT/B heavy chain (from UniProt B1INP5)	–	> 20	0.13
